Test results from the supplement of paper PMC9233669.
Fewer inactive variants are shown than the library holds.

Experiments:
[1] = tested on: biotinyl-Trp-oxazolone; test: self-aminoacylation, catalytic enhancement (BWO) (fold over background); higher = more active; k-Seq, kA / k0A0; sequences stand for … in GGGAAUGGAUCCACAUCUACGAAUUC…UUCACUGCAGACUUGACGAAGCUG
Outline: (§1)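 Mutagenized RNA pools (0.43 μM; 21-nt variable region) were treated with 2–1250 μM of each biotinyl-aminoacyl-oxazolone. Conditions were 50 μL HEPES/NaCl/KCl/MgCl2/CaCl2 buffer, 5% acetonitrile, pH 6.9–7.0, room temperature, 90 minutes. Catalytic enhancement, the median kA relative to the uncatalyzed rate, was derived from streptavidin capture, qPCR and Illumina sequencing.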

[2] = tested on: biotinyl-Ile-oxazolone; test: self-aminoacylation, catalytic enhancement (BIO) (fold over background); higher = more active; k-Seq, kA / k0A0; sequences stand for … in GGGAAUGGAUCCACAUCUACGAAUUC…UUCACUGCAGACUUGACGAAGCUG
Outline: as §1

[3] = tested on: biotinyl-Val-oxazolone; test: self-aminoacylation, catalytic enhancement (BVO) (fold over background); higher = more active; k-Seq, kA / k0A0; sequences stand for … in GGGAAUGGAUCCACAUCUACGAAUUC…UUCACUGCAGACUUGACGAAGCUG
Outline: as §1

[4] = tested on: biotinyl-Leu-oxazolone; test: self-aminoacylation, catalytic enhancement (BLO) (fold over background); higher = more active; k-Seq, kA / k0A0; sequences stand for … in GGGAAUGGAUCCACAUCUACGAAUUC…UUCACUGCAGACUUGACGAAGCUG
Outline: as §1

[5] = tested on: biotinyl-Met-oxazolone; test: self-aminoacylation, catalytic enhancement (BMO) (fold over background); higher = more active; k-Seq, kA / k0A0; sequences stand for … in GGGAAUGGAUCCACAUCUACGAAUUC…UUCACUGCAGACUUGACGAAGCUG
Outline: as §1

[6] = tested on: biotinyl-Phe-oxazolone; test: self-aminoacylation, catalytic enhancement (BFO) (fold over background); higher = more active; k-Seq, kA / k0A0; sequences stand for … in GGGAAUGGAUCCACAUCUACGAAUUC…UUCACUGCAGACUUGACGAAGCUG
Outline: as §1

CUACUUGAAACAAUAGGUCUG [Fam1A.1 aminoacylation ribozyme variant]
self-aminoacylation [1]: 0.841
self-aminoacylation [2]: 1.06
self-aminoacylation [3]: 1.05
self-aminoacylation [4]: 1.13
self-aminoacylation [5]: 1.09
self-aminoacylation [6]: 0.837

CUUAUCCUGGUCAUCGAGUGA [Fam2.1 aminoacylation ribozyme variant]
self-aminoacylation [1]: 6.96
self-aminoacylation [2]: 3.22
self-aminoacylation [3]: 3.42
self-aminoacylation [4]: 6.22
self-aminoacylation [5]: 6.26
self-aminoacylation [6]: 7.87

CCACACUUCAAGCAUUCGGUC [Fam1B.1 aminoacylation ribozyme variant]
self-aminoacylation [1]: 0.943
self-aminoacylation [2]: 1.12
self-aminoacylation [3]: 1.27
self-aminoacylation [4]: 0.899
self-aminoacylation [5]: 0.887
self-aminoacylation [6]: 0.969

AUUACCCUGGGCAUCGAGUGC [Fam2.1 aminoacylation ribozyme variant]
self-aminoacylation [1]: 1.31
self-aminoacylation [2]: 1.1
self-aminoacylation [3]: 0.979
self-aminoacylation [4]: 0.992
self-aminoacylation [5]: 1.24
self-aminoacylation [6]: 0.527

AUUCACCUAUGUCAUAGGGUG [Fam2.2 aminoacylation ribozyme variant]
self-aminoacylation [1]: 0.856
self-aminoacylation [2]: 1.36
self-aminoacylation [3]: 1.15
self-aminoacylation [4]: 1.75
self-aminoacylation [5]: 1.46
self-aminoacylation [6]: 1.08

AUUCGCCGAGGUCAUCGGGUG [Fam2.2 aminoacylation ribozyme variant]
self-aminoacylation [1]: 9.29
self-aminoacylation [2]: 6.76
self-aminoacylation [3]: 7.83
self-aminoacylation [4]: 13.7
self-aminoacylation [5]: 12.4
self-aminoacylation [6]: 80.2

AUAACCCUGGUCAUCGCGUGA [Fam2.1 aminoacylation ribozyme variant]
self-aminoacylation [1]: 18.7
self-aminoacylation [2]: 6.85
self-aminoacylation [3]: 7.96
self-aminoacylation [4]: 18.2
self-aminoacylation [5]: 16
self-aminoacylation [6]: 103

AAGUCUGCUAAUGGUCGCAAG [Fam3.1 aminoacylation ribozyme variant]
self-aminoacylation [1]: 0.919
self-aminoacylation [2]: 0.882
self-aminoacylation [3]: 0.865
self-aminoacylation [4]: 0.959
self-aminoacylation [5]: 1.3
self-aminoacylation [6]: 5.79

AUUCACCUGGGUCUUCGGGUG [Fam2.2 aminoacylation ribozyme variant]
self-aminoacylation [1]: 5.25
self-aminoacylation [2]: 4.14
self-aminoacylation [3]: 5.01
self-aminoacylation [4]: 7.31
self-aminoacylation [5]: 5.53
self-aminoacylation [6]: 38.6

CUCCUUCAAACAAUCGGUAUG [Fam1A.1 aminoacylation ribozyme variant]
self-aminoacylation [1]: 11.2
self-aminoacylation [2]: 0.742
self-aminoacylation [3]: 0.866
self-aminoacylation [4]: 1.24
self-aminoacylation [5]: 1.07
self-aminoacylation [6]: 13.8

ACUACCCUGGUCAUCGAUUGA [Fam2.1 aminoacylation ribozyme variant]
self-aminoacylation [1]: 1.16
self-aminoacylation [2]: 1.01
self-aminoacylation [3]: 1.02
self-aminoacylation [4]: 1.16
self-aminoacylation [5]: 1.05
self-aminoacylation [6]: 1.59
